Measurements published in article PMC7334433, “Enzymatic characterization and structure-function relationship of two chitinases, LmChiA and LmChiB, from Listeria monocytogenes” (Heliyon, 2020).

System: CC(=O)N[C@H]1[C@H](Oc2ccc([N+](=O)[O-])cc2)O[C@H](CO)[C@@H](O[C@@H]2O[C@H](CO)[C@@H](O)[C@H](O)[C@H]2NC(C)=O)[C@@H]1O
Test: purified protein
Settings: 20 mM sodium phosphate pH 7.4, 37 °C (standard assay), substrate 0.05–0.45 mM

Substance | Km | kcat | kcat/Km
LmChiA (Listeria monocytogenes EGD-e) | 1622 ± 13 µM | 33.6 ± 1 s⁻¹ | 20000 M⁻¹ s⁻¹
LmChiB (Listeria monocytogenes EGD-e) | 375 ± 27 µM | 72.1 ± 1.4 s⁻¹ | 190000 M⁻¹ s⁻¹
